# Changes are numbered by the printed parent chain.
# B1: 1.35.1-1 (antibody, human IgG1, kappa)
# heavy: QVQLVQSGAEVKKPGASVRVSCKASGYNIRDYFMHWWRQAPGQGLQWVGWINPKTGQPNNPRQFQGRVTMTRHASWDFDTFSFYMDLSRLRSDDTATYFCARQRTDYWDFDVWGQGTMVTVSSASTKGPSVFPLAPSSKSTSGGTAALGCLVKDYFPEPVTVSWNSGALTSGVHTFPAVLQSSGLYSLSSVVTVPSSSLGTQTYICNVNHKPSNTKVDKKVEPKSCDKTHTCPPCPAPELLAGPDVFLFPPKPKDTLMISRTPEVTCVVVDVSHEDPEVKFNWYVDGVEVHNAKTKPREEQYNSTYRVVSVLTVLHQDWLNGKEYKCKVSNKALPLPEEKTISKAKGQPREPQVYTLPPSREEMTKNQVSLTCLVKGFYPSDIAVEWESNGQPENNYKTTPPVLDSDGSFFLYSKLTVDKSRWQQGNVFSCSVLHEALHSHYTQKSLSLSPGK
# light: DIQMTQSPSSLSASVGDTVTITCQANGYLNWYQQRRGKAPKLLIYDGSKLERGVPSRFSGRRWGQEYNLTINNLQPEDIATYFCQVYEFVVPGTRLDLKRTVAAPSVFIFPPSDEQLKSGTASVVCLLNNFYPREAKVQWKVDNALQSGNSQESVTEQDSKDSTYSLSSTLTLSKADYEKHKVYACEVTHQGLSSPVTKSFNRGEC
# B2: 1.31.36-1 (antibody, human IgG1, kappa)
# heavy: B1 heavy with K12T, K23E, M34I, T69S, M70L, S88K, R89A, T105S, Q115S, M118Q
# light: DIQMTQSPSSLSASVGDRVTITCQANGYLNWYQQKPGKAPKLLIYDGSNLETGVPSRFSGSRWGQEYTLTISSLQPEDIATYFCQVYEFVTPGTNLDIKRTVAAPSVFIFPPSDEQLKSGTASVVCLLNNFYPREAKVQWKVDNALQSGNSQESVTEQDSKDSTYSLSSTLTLSKADYEKHKVYACEVTHQGLSSPVTKSFNRGEC
# B3: 1.35.34-1 (antibody, human IgG1, kappa)
# heavy: B1 heavy
# light: B2 light with R18T, K35R, P36R, T52R, S61R, N95R
# B4: 1.35.33-1 (antibody, human IgG1, kappa)
# heavy: B1 heavy
# light: B2 light with R18T, K35R, P36R, T52R, S61R, T91V
# B5: 1.36.32-1 (antibody, human IgG1, kappa)
# heavy: B1 heavy with F83A
# light: B1 light with N68T, N72S, N73S, V91T
# B6: 1.32.36-1 (antibody, human IgG1, kappa)
# heavy: B1 heavy with K12T, K23E, M34I, T69S, M70L, S88K, R89A, T97V, Q115S, M118Q
# light: B2 light
# B7: 1.35.31-1 (antibody, human IgG1, kappa)
# heavy: B1 heavy
# light: B1 light with N68T, N72S, N73S, R95N
# B8: 1.35.32-1 (antibody, human IgG1, kappa)
# heavy: B1 heavy
# light: B1 light with N68T, N72S, N73S, V91T
# B9: 1.36.34-1 (antibody, human IgG1, kappa)
# heavy: B1 heavy with F83A
# light: B2 light with R18T, K35R, P36R, T52R, S61R, N95R
# B10: 1.31.35-1 (antibody, human IgG1, kappa, V domains shown)
# VH: QVQLVQSGAEVTKPGASVRVSCEASGYNIRDYFIHWWRQAPGQGLQWVGWINPKTGQPNNPRQFQGRVSLTRHASWDFDTFSFYMDLKALRSDDTATYFCARQRSDYWDFDVWGSGTQVTVSS
# VL: DIQMTQSPSSLSASVGDRVTITCQANGYLNWYQQKPGKAPKLLIYDGSNLETGVPSRFSGSRWGQEYTLTISSLQPEDIATYFCQVYEFVGPGTNLDIKR
# B11: 1.35.35-1 (antibody, human IgG1, kappa, V domains shown)
# VH: B10 VH with T12K, E23K, I34M, S69T, L70M, K88S, A89R, S105T, S115Q, Q118M
# VL: B10 VL
# B12: 1.33.35-1 (antibody, human IgG1, kappa, V domains shown)
# VH: B10 VH with T12K, E23K, S69T
# VL: B10 VL
# B13: 1.34.35-1 (antibody, human IgG1, kappa, V domains shown)
# VH: B10 VH with T12K, E23K, S69T, T97V, S105T
# VL: B10 VL
# B14: 1.32.35-1 (antibody, human IgG1, kappa, V domains shown)
# VH: B10 VH with T97V, S105T
# VL: B10 VL
# B15: 1.36.35-1 (antibody, human IgG1, kappa, V domains shown)
# VH: QVQLVQSGAEVKKPGASVRVSCKASGYNIRDYFMHWWRQAPGQGLQWVGWINPKTGQPNNPRQFQGRVTMTRHASWDFDTFSAYMDLSRLRSDDTATYFCARQRTDYWDFDVWGQGTMVTVSS
# VL: B10 VL
# Target: BSA (UniProt P02769 25-607)
# Assay: single-point ELISA, BSA control
row,Binder,ELISA A450
1,B1,0.07 A450
2,B2,0.06 A450
3,B3,0.06 A450
4,B4,0.06 A450
5,B5,0.07 A450
6,B6,0.06 A450
7,B7,0.07 A450
8,B8,0.06 A450
9,B9,0.07 A450
10,B10,0.06 A450
11,B11,0.06 A450
12,B12,0.07 A450
13,B13,0.06 A450
14,B14,0.06 A450
15,B15,0.06 A450

# Target: gp120 Bal (HIV (Bal))
# Assay: single-point ELISA at EC50 conc. of A-1
row,Binder,ELISA A450
1,B1,0.84 A450
2,B2,1.06 A450
3,B3,1 A450
4,B4,0.9 A450
5,B5,0.96 A450
6,B6,0.92 A450
7,B7,1.05 A450
8,B8,0.96 A450
9,B9,1.01 A450
10,B10,0.9 A450
11,B11,0.88 A450
12,B12,1.03 A450
13,B13,0.94 A450
14,B14,0.89 A450
15,B15,0.89 A450

# Target: gp120 SHIV SF162 P3 (SHIV SF162 P3)
# Assay: single-point ELISA at EC50 conc. of A-1
row,Binder,ELISA A450
1,B1,0.8 A450
2,B2,0.93 A450
3,B3,0.58 A450
4,B4,0.65 A450
5,B5,0.18 A450
6,B6,0.62 A450
7,B7,0.68 A450
8,B8,0.58 A450
9,B9,0.15 A450
10,B10,0.61 A450
11,B11,0.42 A450
12,B12,0.71 A450
13,B13,0.56 A450
14,B14,0.5 A450
15,B15,0.16 A450

# Target: gp120 CAAN (HIV (CAAN))
# Assay: single-point ELISA at EC50 conc. of A-1
row,Binder,ELISA A450
1,B1,0.87 A450
2,B2,0.9 A450
3,B3,0.85 A450
4,B4,0.91 A450
5,B5,0.5 A450
6,B6,0.64 A450
7,B7,0.99 A450
8,B8,1.01 A450
9,B9,0.43 A450
10,B10,0.77 A450
11,B11,0.67 A450
12,B12,0.81 A450
13,B13,0.77 A450
14,B14,0.59 A450
15,B15,0.36 A450

# Source: patent publication US20240034774A1 (Gilead, published 2024)
